Reference: patent US20140349340A1 (DSM SINOCHEM PHARMACEUTICALS NETHERLANDS B V, published 2014)

How the values were obtained:
Tcp11_M1_A = Tcp11_M1_A (Actinoplanes teichomyceticus); test: cell-based or functional assay
Veg8_M1_A = Veg8_M1_A (uncultured soil bacterium); test: cell-based or functional assay
Tcp9_M1_AT = Tcp9_M1_AT (Actinoplanes teichomyceticus); test: cell-based or functional assay
ComB_M1_A = ComB_M1_A (Streptomyces lavendulae); test: His-tag (TALON) co-purification after co-expression in E. coli, SDS-PAGE
Veg8_M1_ATE = Veg8_M1_ATE (uncultured soil bacterium); test: as above

Chain of Tcp11_M1_A (Actinoplanes teichomyceticus) (chain, as listed by the source): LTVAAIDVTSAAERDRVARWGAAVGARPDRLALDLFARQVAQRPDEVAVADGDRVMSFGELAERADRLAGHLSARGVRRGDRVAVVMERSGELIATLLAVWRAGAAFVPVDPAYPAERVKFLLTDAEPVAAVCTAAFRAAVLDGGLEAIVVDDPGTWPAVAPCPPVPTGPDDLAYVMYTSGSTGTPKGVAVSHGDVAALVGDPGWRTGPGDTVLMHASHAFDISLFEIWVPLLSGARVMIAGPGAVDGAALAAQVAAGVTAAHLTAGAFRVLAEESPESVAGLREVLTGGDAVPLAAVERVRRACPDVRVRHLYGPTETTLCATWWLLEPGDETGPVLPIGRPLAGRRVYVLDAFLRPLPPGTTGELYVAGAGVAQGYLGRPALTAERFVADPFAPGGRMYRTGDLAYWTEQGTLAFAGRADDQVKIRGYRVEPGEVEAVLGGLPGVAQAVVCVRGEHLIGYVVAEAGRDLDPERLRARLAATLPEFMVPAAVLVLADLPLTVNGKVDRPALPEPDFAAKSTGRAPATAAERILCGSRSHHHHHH
Chain of Veg8_M1_A (uncultured soil bacterium) (chain, as listed by the source): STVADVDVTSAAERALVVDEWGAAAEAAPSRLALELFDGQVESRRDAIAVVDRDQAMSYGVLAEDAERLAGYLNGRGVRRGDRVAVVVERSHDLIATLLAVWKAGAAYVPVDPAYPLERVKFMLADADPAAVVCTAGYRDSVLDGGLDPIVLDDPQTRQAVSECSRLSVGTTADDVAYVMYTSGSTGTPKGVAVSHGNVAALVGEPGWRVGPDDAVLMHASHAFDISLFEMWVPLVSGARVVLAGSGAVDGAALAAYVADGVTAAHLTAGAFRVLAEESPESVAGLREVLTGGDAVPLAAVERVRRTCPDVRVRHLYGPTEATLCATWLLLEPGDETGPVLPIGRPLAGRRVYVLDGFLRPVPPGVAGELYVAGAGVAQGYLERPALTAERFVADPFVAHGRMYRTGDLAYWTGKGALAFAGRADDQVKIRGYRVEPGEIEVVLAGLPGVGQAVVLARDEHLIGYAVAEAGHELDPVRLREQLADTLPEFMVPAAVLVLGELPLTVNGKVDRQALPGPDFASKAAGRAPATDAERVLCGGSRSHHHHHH
Chain of Tcp9_M1_AT (Actinoplanes teichomyceticus) (chain, as listed by the source limits assumed): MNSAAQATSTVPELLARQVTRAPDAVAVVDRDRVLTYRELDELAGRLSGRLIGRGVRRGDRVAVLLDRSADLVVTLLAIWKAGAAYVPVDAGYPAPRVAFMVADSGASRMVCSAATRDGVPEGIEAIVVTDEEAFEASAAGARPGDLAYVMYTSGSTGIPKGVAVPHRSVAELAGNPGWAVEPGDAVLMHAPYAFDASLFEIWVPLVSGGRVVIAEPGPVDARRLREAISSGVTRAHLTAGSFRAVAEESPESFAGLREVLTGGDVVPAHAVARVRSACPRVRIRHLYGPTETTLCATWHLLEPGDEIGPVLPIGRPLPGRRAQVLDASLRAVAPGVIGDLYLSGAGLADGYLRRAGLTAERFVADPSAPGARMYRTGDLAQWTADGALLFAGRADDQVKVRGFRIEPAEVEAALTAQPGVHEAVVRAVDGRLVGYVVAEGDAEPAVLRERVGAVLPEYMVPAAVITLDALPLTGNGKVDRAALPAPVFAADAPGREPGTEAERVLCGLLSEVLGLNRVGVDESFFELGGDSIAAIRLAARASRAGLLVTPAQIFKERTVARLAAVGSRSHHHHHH

Row | Binder | Formed PPi (PPi release assay), D-HPG 0.1 mM (Tcp11_M1_A) | Formed PPi (PPi release assay), D-HPG 1 mM (Tcp11_M1_A) | Formed PPi (PPi release assay), D-PG 1 mM (Tcp11_M1_A) | Formed PPi (PPi release assay), L-HPG 0.1 mM (Tcp11_M1_A) | Formed PPi (PPi release assay), L-HPG 1 mM (Tcp11_M1_A) | Formed PPi (PPi release assay), L-PG 1 mM (Tcp11_M1_A) | Formed PPi (PPi release assay), D-HPG 0.1 mM (Veg8_M1_A) | Formed PPi (PPi release assay), D-HPG 1 mM (Veg8_M1_A) | Formed PPi (PPi release assay), D-PG 1 mM (Veg8_M1_A) | Formed PPi (PPi release assay), L-HPG 0.1 mM (Veg8_M1_A) | Formed PPi (PPi release assay), L-HPG 1 mM (Veg8_M1_A) | Formed PPi (PPi release assay), L-PG 1 mM (Veg8_M1_A) | Formed PPi (PPi release assay), D-HPG 0.1 mM (Tcp9_M1_AT) | Formed PPi (PPi release assay), D-HPG 1 mM (Tcp9_M1_AT) | Formed PPi (PPi release assay), D-PG 1 mM (Tcp9_M1_AT) | Formed PPi (PPi release assay), L-HPG 0.1 mM (Tcp9_M1_AT) | Formed PPi (PPi release assay), L-HPG 1 mM (Tcp9_M1_AT) | Formed PPi (PPi release assay), L-PG 1 mM (Tcp9_M1_AT) | binding result (ComB_M1_A) | binding result (Veg8_M1_ATE)
1 | MbtH-like protein Tcp13 (other, Expressed from pACYCtac-Tcp13 in E. coli without a His-tag) MTNPFDNEDGSFLVLVNGEGQHSLWPAFAEVPDGWTGVHGPASRQDCLGYVEQNWTDLRPKSLISQISD | 0.08 mM/min/mM enzyme | 0.66 mM/min/mM enzyme | 0 mM/min/mM enzyme | 0.8 mM/min/mM enzyme | 1.03 mM/min/mM enzyme | 0.17 mM/min/mM enzyme | 0.14 mM/min/mM enzyme | 0.92 mM/min/mM enzyme | 0.01 mM/min/mM enzyme | 0.56 mM/min/mM enzyme | 0.59 mM/min/mM enzyme | 0.17 mM/min/mM enzyme | 2.07 mM/min/mM enzyme | 5.28 mM/min/mM enzyme | 0.05 mM/min/mM enzyme | 1.18 mM/min/mM enzyme | 1.16 mM/min/mM enzyme | 1.32 mM/min/mM enzyme | binds | binds
2 | MbtH-like protein Tcp17 (other, Expressed from pACYCtac-Tcp17 in E. coli without a His-tag) MTNPFDNEDGSFLVLVNGEGQHSLWPAFAEVPDGWTGVHGPASRQDCLGYVEQNWTDLRPRSLVEQADA | 0.11 mM/min/mM enzyme | 0.63 mM/min/mM enzyme | 0.04 mM/min/mM enzyme | 0.95 mM/min/mM enzyme | 1.04 mM/min/mM enzyme | 0.23 mM/min/mM enzyme | 0.17 mM/min/mM enzyme | 1.03 mM/min/mM enzyme | 0.02 mM/min/mM enzyme | 0.7 mM/min/mM enzyme | 0.64 mM/min/mM enzyme | 0.14 mM/min/mM enzyme | 1.71 mM/min/mM enzyme | 4.63 mM/min/mM enzyme | 0.05 mM/min/mM enzyme | 1.2 mM/min/mM enzyme | 1.34 mM/min/mM enzyme | 1.44 mM/min/mM enzyme | binds | binds
3 | MbtH-like protein VMbtH (other, Expressed from pACYCtac-VMbtH in E. coli without a His-tag) MTNPFDNEDGTFFVLVNDEGQHSLWPTFAEVPAGWTRVHGEATRQECLAYVEENWTDLRPKSLIQALGA | 0 mM/min/mM enzyme | 0.86 mM/min/mM enzyme | 0 mM/min/mM enzyme | 1.38 mM/min/mM enzyme | 1.54 mM/min/mM enzyme | 0.09 mM/min/mM enzyme | 0.18 mM/min/mM enzyme | 1.39 mM/min/mM enzyme | 0.02 mM/min/mM enzyme | 0.61 mM/min/mM enzyme | 0.61 mM/min/mM enzyme | 0.2 mM/min/mM enzyme | 3.72 mM/min/mM enzyme | 8.44 mM/min/mM enzyme | 0.07 mM/min/mM enzyme | 1.23 mM/min/mM enzyme | 1.4 mM/min/mM enzyme | 2.32 mM/min/mM enzyme | binds | binds
